Experimental data reported in PMC2817712, “Using Structural Information to Change the Phosphotransfer Specificity of a Two-Component Chemotaxis Signalling Complex” (PLoS Biology, 2010).

Target: T1, CheA3P1, the isolated P1 (Hpt, histidine-containing phosphotransfer) domain of CheA3 (residues 1-135), … (R. sphaeroides)
T1 construct: Analyte in SPR and partner in the unphosphorylated crystal structure; also called Hpt domain of CheA3
Experiment: SPR; Biacore T100, 25°C; response regulator biotinylated in a C-terminal tag and held on streptavidin (200-1,500 RU); CheA3P1 injected at 120 nM to 2 mM; standard buffer (30 mM Hepes pH 7.5, 150 mM NaCl, 5 mM sodium acetate, 2 mM manganese chloride, 2 mM TCEP) with 0.05% Tween 20; equilibrium binding, 1:1 Langmuir model
Settings: both partners purified

B1: CheY6(M13S) with an engineered C-terminal biotinylation tag, for SPR surfaces (natural protein)
chain: PYNVMIVDDAASMRLYIASFIKTLPDFKVVAQAANGQEALDKLAAQPNVDLILLDIEMPVMDGMEFLRHAKLKTRAKICMLSSVAVSGSPHAARARELGADGVVAKPSGTVSHDLEEKTGGELARTMRTLMAA
modifications: biotin within the engineered C-terminal tag (enzymatic)
- Kd: > 1000 µM

B2: CheY6(M13S,L16S,Y17M) with an engineered C-terminal biotinylation tag, for SPR surfaces (natural protein)
chain: PYNVMIVDDAASMRSMIASFIKTLPDFKVVAQAANGQEALDKLAAQPNVDLILLDIEMPVMDGMEFLRHAKLKTRAKICMLSSVAVSGSPHAARARELGADGVVAKPSGTVSHDLEEKTGGELARTMRTLMAA
modifications: biotin within the engineered C-terminal tag (enzymatic)
- Kd: > 1000 µM
